From patent US9655377, “Methods of controlling fructan synthesis in plants” (COMMONWEALTH SCIENTIFIC AND INDUSTRIAL RESEARCH ORGANISATION)

How the values were obtained:
[1] = molecular target: T1, TaMYB13-1 (correctly spliced form) (Triticum aestivum); assay: no or negligible activity; did not compete with SynO2m14; conditions: tags: C-terminal 6xHis-tagged CELD cellulase reporter fusion; label: biotin
T1 chain: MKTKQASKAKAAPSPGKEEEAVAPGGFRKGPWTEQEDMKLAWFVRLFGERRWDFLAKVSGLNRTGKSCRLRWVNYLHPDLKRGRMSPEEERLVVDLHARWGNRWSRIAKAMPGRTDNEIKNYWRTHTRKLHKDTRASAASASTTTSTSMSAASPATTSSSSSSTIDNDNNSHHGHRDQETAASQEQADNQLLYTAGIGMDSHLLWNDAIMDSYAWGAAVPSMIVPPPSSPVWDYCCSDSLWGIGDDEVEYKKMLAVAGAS
Protocol: (§1) The DNA-binding activity of TaMYB13-CELD was measured as described previously (Xue, 2002a) using streptavidin-coated 96-well plate and binding/washing buffer (25 mM HEPES/KOH, pH 7.0, 50 mM KCl, 0.2 mM EDTA and 0.5 mM DTT) containing 0.15 µg µl^-1 shared herring sperm DNA, 0.3 mg ml^-1 bovine, serum albumin, 10% glycerol and 0.025% Nonidet P-40. 40,000 fluorescent units h^-1 of the CELD activity of TaMYB13-CELD protein and 2 pmol of biotinylated probes were used per assay. […]
(§2) Binding site competition assays were as described by Xue (2002). […] Relative TaMYB13 binding activity was expressed as fluorescence units (FU) of methylumbelliferyl group generated from MUC hydrolysis by TaMYB13-CELD that bound to an immobilised biotin-labelled probe after 3-h incubation of cellulase assay.
(§3) To further analyse the relative binding affinity of the previously reported plant R2R3 MYB protein sites in relation to the preferred TaMYB13-binding site, a binding site competition analysis was performed. Relative TaMYB13 binding activity to three biotin-labelled probes (SynO2m14, MYB.Ph3-II and MRE2) was assessed in combination with or without one of the four unlabelled competitors in a 2.5-fold amount: SynO2m14, MYB.Ph3-II, MRE2 and AC-I. The addition of a 2.5-fold amount of unlabelled SynO2m14 to biotin-labelled SynO2m14 reduced the TaMYB13 binding activity by about 60%. […]

[2] = molecular target: T1, TaMYB13-1 (correctly spliced form); assay: relative to SynO2m14; conditions: tags: C-terminal 6xHis-tagged CELD cellulase reporter fusion; label: biotin
[3] = molecular target: T1, TaMYB13-1 (correctly spliced form); assay: CELD reporter plate assay, 25 mM HEPES pH 7.0, 50 mM KCl; self-competition at 2.5x reduced binding about 60%; conditions: tags: C-terminal 6xHis-tagged CELD cellulase reporter fusion; label: biotin
Protocol: as §1, §2, §3

[4] = molecular target: T1, TaMYB13-1 (correctly spliced form); assay: higher affinity than S3; assayed oligonucleotide may be longer; conditions: tags: C-terminal 6xHis-tagged CELD cellulase reporter fusion
Protocol: (§4) The DNA-binding activity of TaMYB13-CELD was measured as described previously (Xue, 2002a) using streptavidin-coated 96-well plate and binding/washing buffer (25 mM HEPES/KOH, pH 7.0, 50 mM KCl, 0.2 mM EDTA and 0.5 mM DTT) containing 0.15 µg µl^-1 shared herring sperm DNA, 0.3 mg ml^-1 bovine, serum albumin, 10% glycerol and 0.025% Nonidet P-40. 40,000 fluorescent units h^-1 of the CELD activity of TaMYB13-CELD protein and 2 pmol of biotinylated probes were used per assay. The cellulase activity of TaMYB13-CELD proteins bound to immobilised biotinylated probes was assayed by incubation in 100 μl of the CELD substrate solution [1 mM methylumbelliferyl β-D-cellobioside (MUC) in 50 mM Na-citrate buffer, pH 6.0] at 40° C. for 3 h. A biotin-labelled double-stranded oligonucleotide without a TaMYB13 binding site was used as a control of background activity.

[5] = molecular target: T1, TaMYB13-1 (correctly spliced form); assay: higher affinity than Ta1-SST S1; assayed oligonucleotide may be longer; conditions: tags: C-terminal 6xHis-tagged CELD cellulase reporter fusion
Protocol: as §4

[6] = molecular target: T1, TaMYB13-1 (correctly spliced form); assay: CELD reporter assay; positive control; conditions: tags: C-terminal 6xHis-tagged CELD cellulase reporter fusion; label: biotin
Protocol: as §4

[7] = molecular target: T1, TaMYB13-1 (correctly spliced form); assay: no or negligible activity, relative to SynO2m14; conditions: tags: C-terminal 6xHis-tagged CELD cellulase reporter fusion; label: biotin
[8] = molecular target: T1, TaMYB13-1 (correctly spliced form); assay: assayed oligonucleotide may be longer; conditions: tags: C-terminal 6xHis-tagged CELD cellulase reporter fusion
[9] = molecular target: T1, TaMYB13-1 (correctly spliced form); assay: background control; conditions: tags: C-terminal 6xHis-tagged CELD cellulase reporter fusion; label: biotin
Protocol: as §4

[10] = molecular target: T1, TaMYB13-1 (correctly spliced form); assay: no or negligible activity; conditions: tags: C-terminal 6xHis-tagged CELD cellulase reporter fusion; label: biotin

B1: AC-I (rev-comp) (dsDNA)
DNA 1: TCGAGGGAATAAGGTAGGTGGATGATGT
DNA 2: ACATCATCCACCTACCTTATTCCCTCGA
- binding result [1]: no binding

B2: AC-III (dsDNA)
DNA 1: TCGAGGGAATAAAGTTAGGTTATGATGT
DNA 2: ACATCATAACCTAACTTTATTCCCTCGA
- binding result [2]: binds

B3: SynO2m14 (dsDNA)
DNA 1: TCGAGGGAATAAAGTTAGGTAAGATGT
DNA 2: ACATCTTACCTAACTTTATTCCCTCGA
- binding result [3]: binds

B4: Ta6-SFT1 S1 site (dsDNA)
DNA 1: TGTTAGGTTCGGTT
DNA 2: AACCGAACCTAACA
- binding result [4]: binds

B5: Ta1-SST S2 site (dsDNA)
DNA 1: ATGTTCGGTAA
DNA 2: TTACCGAACAT
- binding result [5]: binds

B6: SynO2 (dsDNA)
DNA 1: TCGACCGAATAAAGTTTGGTATGATGT
DNA 2: ACATCATACCAAACTTTATTCGGTCGA
- binding result [6]: binds

B7: MYB.Ph3-I (dsDNA)
DNA 1: TCGAGGGAATAAAAACGGTTATGATGT
DNA 2: ACATCATAACCGTTTTTATTCCCTCGA
- binding result [7]: no binding

B8: Hv6-SFT S1 site (dsDNA)
DNA 1: TATGTTAGGTAC
DNA 2: GTACCTAACATA
- binding result [8]: binds

B9: control without TaMYB13 site (dsDNA)
DNA 1: GAGAATTTGCCGTTTATCTAGAAATTACCT
DNA 2: AGGTAATTTCTAGATAAACGGCAAATTCTC
- binding result [9]: no binding

B10: MRE (rev-comp) (dsDNA)
DNA 1: TCGAGGGAATAATTTTTGGTTTGATGT
DNA 2: ACATCAAACCAAAAATTATTCCCTCGA
- binding result [10]: no binding
